By Kd is commonly meant the free concentration of one partner at which half of the binding sites on the other are occupied at equilibrium, for simple one-to-one binding.

Test [1] deals with GLP-1 receptor on CHO-K1/GLP1/Gal5 cells. Put plainly: cell-based or functional assay.
The target of test [2] is GLP-1 receptor (covalently immobilized to the Biacore biosensor surface). Put plainly: Biacore SPR, GLP-1 receptor covalently immobilized, peptide injected. On the technique in general: Surface plasmon resonance follows binding to a sensor surface in real time, without labels.

On to “5 kDa-PEG-Cys(37)-GLP-1 (from UniProt P01275 27-56) (peptide)”, for which, in test [1], the EC50 of intracellular calcium mobilization (Calcium-4, FlexStation, RFU) amounted to 0.336 µM. In test [2], this substance showed a Kd of 1.6 µM. On to “GLP-1 (7-36) (from UniProt P01275 27-56) (peptide)”, for which the Kd in test [2] was 1 µM.
